Results on one substance are retold here after publication PMC5131608.

The experiment concerns the target Tt1219^33-236 (T. thermophilus HB8). As to the kind of experiment: SEC; size exclusion chromatography of Tt1219^33-236 alone (Supplementary Fig. 1). (In gel filtration, larger molecules generally elute earlier.)

Consider Tt1219^33-236 (domain or fragment), for which the stoichiometry N was 2.

Broadly, the stoichiometry N is a count of units in the complex or per binding partner.
